Experimental data as given in the supplement of paper PMC12764529.
± gives the half width of the 95% confidence interval.

What was measured:
[1] = folding stability dG unfold from trypsin proteolysis; higher = more stable
Procedure, shortened: (§1)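 K50 was inferred by Bayesian fitting of sequencing counts obtained after protease digestion of designed mini-proteins. Unfolding free energy was derived by comparison with a sequence-predicted unfolded-state K50 and a shared folded-state K50, for each protease or both combined. The mini-proteins were under 80 residues, had no cysteine, were carried in a PA-tagged cDNA display construct, and were kept only if AlphaFold2 dimer inter-PAE exceeded 15.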

[2] = folding stability dG unfold from chymotrypsin proteolysis; higher = more stable
Procedure, shortened: as §1

[3] = folding stability dG unfold (combined trypsin and chymotrypsin); higher = more stable
Procedure, shortened: as §1

SMIKVGFNVTGLPEEAEAKAEELARELAEETGARVAGVELLEAVPHPDGGPETFNVLVTLEVPNPEAIEKSA [r9_302_TrMRF]
folding stability dG unfold [1]: 0.542 ± 0.045 kcal/mol
folding stability dG unfold [2]: 2.21 ± 0.051 kcal/mol
folding stability dG unfold [3]: 1.72 ± 0.093 kcal/mol

SMILDVPGEQLDEALAEIRAAVAAGAPPVTIRMKLSPEDLKKAKAAFEALGMTVTPLPEPGVWEFTVELRSA [r9_600_JUSTAS]
folding stability dG unfold [1]: 3.08 ± 0.043 kcal/mol
folding stability dG unfold [2]: 3.366 ± 0.017 kcal/mol
folding stability dG unfold [3]: 3.27 ± 0.065 kcal/mol

SMITIPYNIQTDPSQAEKLAEEIAKEVEEKYGLKVVGVELVEWVPAPDGSESSVKVEIKIEAPDPKNILLSA [r9_302_JUSTAS]
folding stability dG unfold [1]: 0.614 ± 0.031 kcal/mol
folding stability dG unfold [2]: 0.713 ± 0.089 kcal/mol
folding stability dG unfold [3]: 0.705 ± 0.096 kcal/mol

SMITSTTTTDPNSNTTTTTYTYPDTTYTVTRTLNPDNTVTVTVTATTPPGPTTPLSTVNLSPTDTLTLPVSA [r9_1172_JUSTAS]
folding stability dG unfold [1]: 1.34 ± 0.031 kcal/mol
folding stability dG unfold [2]: 1.26 ± 0.068 kcal/mol
folding stability dG unfold [3]: 1.36 ± 0.054 kcal/mol

SMIVRVEGDKTTITLTLTTTTTLTDPTNPSLTTTVSKTVPRTLTLDPNDPAALAALIAALPPGAVPTIVGSA [r9_476_JUSTAS]
folding stability dG unfold [1]: 0.728 ± 0.04 kcal/mol
folding stability dG unfold [2]: 1.75 ± 0.091 kcal/mol
folding stability dG unfold [3]: 1.43 ± 0.095 kcal/mol

SMKEPPKVTIEIEYDEETETVRVRITLEDGTEIEVEVEAENKEEALREAIREALKKIFPELTDEQIEKLLSA [r9_634_TrROS_Hall]
folding stability dG unfold [1]: 3.45 ± 0.24 kcal/mol
folding stability dG unfold [2]: 1.58 ± 0.11 kcal/mol
folding stability dG unfold [3]: 2.72 ± 0.29 kcal/mol

SMKIEIIERNEDGEYVLVRITFEDGEEITIVAKTEEEAKEAAKEIAKELFPDVKIKKIEVVPLEDLPEELSA [r9_137_TrROS_Hall]
folding stability dG unfold [1]: 1.62 ± 0.14 kcal/mol
folding stability dG unfold [2]: 0.251 ± 0.37 kcal/mol
folding stability dG unfold [3]: 1 ± 0.31 kcal/mol

SMKIEVEKLEDGTYVITIEDPGEDDIPVTYKAVVFVDPETGKVYVDRNIEDPNVPPELKELFENFIPGIESA [r9_715_TrMRF]
folding stability dG unfold [1]: 2.5 ± 0.094 kcal/mol
folding stability dG unfold [2]: 3.097 ± 0.018 kcal/mol
folding stability dG unfold [3]: 2.92 ± 0.056 kcal/mol

SMKIKIEKVEDGYYKIKIYDKKTKKEYTIIVPKNMKPGQVELVNRNGKKITMTLEEIKKLLPPGAEVEIVSA [r9_250_TrROS_Hall]
folding stability dG unfold [1]: 2.01 ± 0.074 kcal/mol
folding stability dG unfold [2]: 2.14 ± 0.051 kcal/mol
folding stability dG unfold [3]: 2.21 ± 0.1 kcal/mol

SMKIKIEPLPDGSYRLVAEVPEDAEETENLFPLTGKPIVVKREKNKLVIEFDNPEEVELFAEALKKNIPLSA [r9_515_TrMRF]
folding stability dG unfold [1]: 1.28 ± 0.032 kcal/mol
folding stability dG unfold [2]: 1.54 ± 0.084 kcal/mol
folding stability dG unfold [3]: 1.47 ± 0.12 kcal/mol

SMKILNDPNIKKVIPVFLMLMSPEEFKKLAEKLANGIKKELEEKGFPIPKDIEIKIIPFKSPEELKKALKSA [r9_204_TrMRF]
folding stability dG unfold [1]: 1.29 ± 0.039 kcal/mol
folding stability dG unfold [2]: 2.31 ± 0.11 kcal/mol
folding stability dG unfold [3]: 1.93 ± 0.14 kcal/mol

SMKINVVINITLPDGTTVTSTLNLTESEIEKTIKEKIPSSYKVEITKKDPVDPAKLPPGSSINVDLTVNLSA [r9_803_JUSTAS]
folding stability dG unfold [1]: 1.31 ± 0.079 kcal/mol
folding stability dG unfold [2]: 1.69 ± 0.15 kcal/mol
folding stability dG unfold [3]: 1.59 ± 0.22 kcal/mol

SMKISSFTLAPGGEAVIELTFESGETRRVRLTGLTSKAEVEAEAKRLQEELEKGNPRPIKTVTVSPAPPASA [r9_1135_JUSTAS]
folding stability dG unfold [1]: 1.14 ± 0.064 kcal/mol
folding stability dG unfold [2]: 0.768 ± 0.24 kcal/mol
folding stability dG unfold [3]: 1 ± 0.094 kcal/mol

SMKITIVNKNGEKKEIEVTAKDGKKYKITVFKDKELVIKVEETTPDGKKKPVKVIKAKSLEEALEALKKASA [r9_942_TrROS_Hall]
folding stability dG unfold [1]: 2.17 ± 0.14 kcal/mol
folding stability dG unfold [2]: 2.83 ± 0.057 kcal/mol
folding stability dG unfold [3]: 2.38 ± 0.32 kcal/mol

SMKIVKIEIEKIEIYSDEEFAKKTGIKPEAIYKNGKKKKVIKIPVKITLYDEKKGEKKEFEAEITIVIDVSA [r9_382_TrMRF]
folding stability dG unfold [1]: 1.56 ± 0.15 kcal/mol
folding stability dG unfold [2]: 2.61 ± 0.19 kcal/mol
folding stability dG unfold [3]: 2.2 ± 0.38 kcal/mol

SMKLKLYDPATGKWYELTYDPAKGTVTITYPDGKVITRPVKSIEVNPETGTITITFPDSTETFTVPESLISA [r9_325_JUSTAS]
folding stability dG unfold [1]: 3.42 ± 0.089 kcal/mol
folding stability dG unfold [2]: 3.934 ± 0.031 kcal/mol
folding stability dG unfold [3]: 3.79 ± 0.066 kcal/mol

SMKLKPGQTAKIVEIKENYIYIEVNGKKYKISLEELKEKGYEIKIVNGKIVEIRPKPKKKLSEEELKKLKSA [r9_842_TrROS_Hall]
folding stability dG unfold [1]: 1.13 ± 0.077 kcal/mol
folding stability dG unfold [2]: 1.04 ± 0.16 kcal/mol
folding stability dG unfold [3]: 1.16 ± 0.15 kcal/mol

SMKPGDKLLIRIRLPPVKVEREYFDKDGKLVKKETKEVKEVELVIELSPEELEKLRELLKELGFEVEILPSA [r9_167_TrROS_Hall]
folding stability dG unfold [1]: 2.83 ± 0.16 kcal/mol
folding stability dG unfold [2]: 2.4 ± 0.055 kcal/mol
folding stability dG unfold [3]: 2.5 ± 0.16 kcal/mol

SMKPGDVKVIEIEVEYPWPPGDPEKAKEKVRDLVNSIMQEHGYDVDIPVEIEPRDGRYRVEVPIIIRPPNSA [r9_889_TrROS]
folding stability dG unfold [1]: 0.0547 ± 0.069 kcal/mol
folding stability dG unfold [2]: -0.771 ± 0.36 kcal/mol
folding stability dG unfold [3]: -0.409 ± 0.25 kcal/mol

SMKPGETVTLEVVIRVKKENMTLEEIAEEVANAIKALLPPGAKITIEVVDIEYDEETDEVYVKLKITIENSA [r9_706_TrROS_Hall]
folding stability dG unfold [1]: 4.17 ± 0.28 kcal/mol
folding stability dG unfold [2]: 2.64 ± 0.23 kcal/mol
folding stability dG unfold [3]: 3.01 ± 0.32 kcal/mol

SMKPPVKVRIRIYNPETGEEIATIEIEFLPDGTVKVTIEIDGKKYEIEMSLDELLEALKKLPFKIVEIEPSA [r9_470_TrROS_Hall]
folding stability dG unfold [1]: 3.72 ± 0.12 kcal/mol
folding stability dG unfold [2]: 3.35 ± 0.064 kcal/mol
folding stability dG unfold [3]: 3.57 ± 0.1 kcal/mol

SMKRVLILVPDPSVDKEELIEELKKKGFEDIEVVDSEEELKKLPENIDVVVIVRDGEVEVREVPPVEALKSA [r9_750_JUSTAS]
folding stability dG unfold [1]: 0.698 ± 0.037 kcal/mol
folding stability dG unfold [2]: 0.585 ± 0.1 kcal/mol
folding stability dG unfold [3]: 0.706 ± 0.11 kcal/mol

SMKTLIVEGMTPEEIRALAEEAAKKGEEVEIEIVVKDNEEIKEALEEAGVEVEEVEDPETKEKVLKVTVKSA [r9_759_TrROS_Hall]
folding stability dG unfold [1]: 0.254 ± 0.044 kcal/mol
folding stability dG unfold [2]: 0.412 ± 0.072 kcal/mol
folding stability dG unfold [3]: 0.327 ± 0.14 kcal/mol

SMKVEIPPELVEAIEKALAEKKPGEEVEIEFEHPDGPLIRVRIEKDGRVRIEVFEHPDKLIAEFEFEPKPSA [r9_132_TrMRF]
folding stability dG unfold [1]: 3.31 ± 0.095 kcal/mol
folding stability dG unfold [2]: 2.98 ± 0.087 kcal/mol
folding stability dG unfold [3]: 3.14 ± 0.077 kcal/mol

SMKYRITLTITKGDEDIVVEIETESEEEAKEKFKKAISPELLKALPEDAKVEITVEPEPLVIPEPGVPLPSA [r9_111_JUSTAS]
folding stability dG unfold [1]: 0.465 ± 0.038 kcal/mol
folding stability dG unfold [2]: 1.22 ± 0.12 kcal/mol
folding stability dG unfold [3]: 0.995 ± 0.062 kcal/mol

SMLEEVLERIEAMPPGSVVKVTLTFPDGTKRTETLKLSAEEVKEKLEKIKKENPDIKIEVKVEVYSTEEESA [r9_37_JUSTAS]
folding stability dG unfold [1]: 3.33 ± 0.39 kcal/mol
folding stability dG unfold [2]: 4.05 ± 0.36 kcal/mol
folding stability dG unfold [3]: 4.39 ± 0.42 kcal/mol

SMLEKIEKAIESGNDGILVPLKLTPEEFKKVRAYLEELGFTLLSEEELAVGPVPVYELTFKVNTKTGEAASA [r9_498_JUSTAS]
folding stability dG unfold [1]: 1.88 ± 0.066 kcal/mol
folding stability dG unfold [2]: 2.44 ± 0.1 kcal/mol
folding stability dG unfold [3]: 2.17 ± 0.13 kcal/mol

SMLNIPSDWKVITIKLEYKVEPGVSEEEVKEKAIEELKKKFPKNTKIEVEVTPDPETGTVTIKITIIIKKSA [r9_657_JUSTAS]
folding stability dG unfold [1]: 2.15 ± 0.062 kcal/mol
folding stability dG unfold [2]: 1.38 ± 0.056 kcal/mol
folding stability dG unfold [3]: 1.84 ± 0.1 kcal/mol

SMMKIRIVNKETKEEIEEIEIEKNEDGSYTIKIKIKKNGKTYEIEIKLPKGMKIEELLKKLGIEKAEIEPSA [r9_492_TrROS_Hall]
folding stability dG unfold [1]: 1.55 ± 0.049 kcal/mol
folding stability dG unfold [2]: 1.98 ± 0.11 kcal/mol
folding stability dG unfold [3]: 1.79 ± 0.11 kcal/mol

SMMYLVKIKVRNKETGELVEEIELVVESEEEAEKIAEELAEELGLEVEVEVKRISPEELEDPEILKELLESA [r9_864_TrROS_Hall]
folding stability dG unfold [1]: 2.77 ± 0.13 kcal/mol
folding stability dG unfold [2]: 3.53 ± 0.088 kcal/mol
folding stability dG unfold [3]: 3.27 ± 0.23 kcal/mol

SMMYLVNLRVEVYKDGKLVEEKEIAIAAPVEEALKIAEAIKESHPDAEVKVEIEVYEIPEDDPEFKEAFASA [r9_782_TrMRF]
folding stability dG unfold [1]: 2.25 ± 0.082 kcal/mol
folding stability dG unfold [2]: 2.87 ± 0.033 kcal/mol
folding stability dG unfold [3]: 2.68 ± 0.089 kcal/mol
